Results reported in US20260158160A1 (MACFARLANE BURNET INSTITUTE FOR MEDICAL RESEARCH AND PUBLIC …, published 2026).
Numbering of substitutions follows the chain as printed. Read-outs that look alike come from different tables or passages of the source.

How the values were obtained:
[1] = molecular target: T1, dimeric rsFcγRIIa (H131 allelic form) (UniProt P12318 34-217); test: flow cytometry: Ramos-S cells opsonised with the ACE2-Fc protein, biotinylated dimeric rsFcγRIIa probe, streptavidin-APC
T1 construct: also called dimeric recombinant soluble FcγRIIa
T1 sequence: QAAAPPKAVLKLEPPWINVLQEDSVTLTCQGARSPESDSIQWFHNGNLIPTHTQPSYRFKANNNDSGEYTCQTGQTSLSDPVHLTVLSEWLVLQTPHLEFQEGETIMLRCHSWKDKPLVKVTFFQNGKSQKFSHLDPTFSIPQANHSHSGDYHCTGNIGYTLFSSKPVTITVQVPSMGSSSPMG

[2] = molecular target: human death receptor 5 (DR5) on cells (human, UniProt O14763 56-440); test: cell-based or functional assay
[3] = molecular target: T2, FcγRIIIa V158 on NF-κB-RE nanoluciferase reporter cells (UniProt P08637 17-254); test: cell-based or functional assay
T2 sequence (P08637 17-254 F176V limits assumed): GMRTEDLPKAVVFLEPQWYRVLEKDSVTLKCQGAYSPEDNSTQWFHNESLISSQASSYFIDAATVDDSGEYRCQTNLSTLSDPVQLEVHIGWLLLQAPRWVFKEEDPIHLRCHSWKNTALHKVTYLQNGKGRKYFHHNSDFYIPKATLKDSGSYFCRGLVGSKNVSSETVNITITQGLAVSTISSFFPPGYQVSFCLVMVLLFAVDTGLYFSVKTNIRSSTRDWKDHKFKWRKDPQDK

[4] = molecular target: T2, FcγRIIIa V158 on NF-κB-RE …; test: cell-based or functional assay; remark: listed apart in the source
[5] = molecular target: T3, SARS-CoV-2 spike protein expressed on Ramos-S cells (SARS-CoV-2, UniProt P0DTC2 14-1273); test: flow cytometry on Ramos-S cells
T3 construct: whole, on cells; also called S protein; Ramos cells expressing transfected spike protein

B1: EflACE2-Fc-H429Y (Fc fusion)
chain: ETGSTIEEQAKYFLDKFNHEAEDLFYQSSLASWNYNTNITEENVQNMNNAGDKWSAFLKEQSTTAQMYPLQEIQNLTVKLQLQALQQNGSSVLSEDKSKRLNTILNTMSTIYSTGKVCNPDNPQECLLLEPGLNEIMANSLDYNERLWAWESWRSEVGKQLRPLYEEYVVLKNEMARANHYEDYGDYWRGDYEVNGVDGYDYSRGQLIEDVEHTFEEIKPLYEHLHAYVRAKLMNAYPSYISPIGCLPAHLLGDMWGRFWTNLYSLTVPFGQKPNIDVTDAMVDQAWDAQRIFKEAEKFFVSVGLPNMTQGFWEYSMLTDPGNVQKAVCHPTAWDLGKGDFRILMCTKVTMDDFLTAHHEMGHIQYDMAYAAQPFLLRNGANEGFHEAVGEIMSLSAATPKHLKSIGLLSPDFQEDNETEINFLLKQALTIVGTLPFTYMLEKWRWMVFKGEIPKDQWMKKWWEMKREIVGVVEPVPHDETYCDPASLFHVSNDYSFIRYYTRTLYQFQFQEALCQAAKHEGPLHKCDISNSTEAGQKLFNMLRLGKSEPWTLALENVVGAKNMNVRPLLNYFEPLFTWLKDQNKNSFVGWSTDWSPYADQSIKVRISLKSALGDRAYEWNDNEMYLFRSSVAYAMRQYFLKVKNQMILFGEEDVRVANLKPRISFNFFVTAPKNVSDIIPRTEVEKAIRMSRSRINDAFRLNDNSLEFLGIQPTLGPPNQPPVSGGGGSTHTCPPCPAPELLGGPSVFLFPPKPKDTLMISRTPEVTCVVVDVSHEDPEVKFNWYVDGVEVHNAKTKPREEQYNSTYRVVSVLTVLHQDWLNGKEYKCKVSNKALPAPIEKTISKAKGQPREPQVYTLPPSREEMTKNQVSLTCLVKGFYPSDIAVEWESNGQPENNYKTTPPVLDSDGSFFLYSKLTVDKSRWQQGNVFSCSVMYEALHNHYTQKSLSLSPGK
notes: also called EflACE2-Fc-H429Yoli; Yoli
[1]
  binding result: no binding (tested: 5 µg/ml (opsonising protein))

B2: TDR5-A2WT (antibody)
heavy: QVQLVQSGAEVKKPGASVKVSCKASGFNIKDTHMHWVRQAPGQRLEWIGRIDPANGNTEYDQKFQGRVTITVDTSASTAYMELSSLRSEDTAVYYCARWGTNVYFAYWGQGTLVTVSSASPTSPKVFPLSLDSTPQDGNVVVACLVQGFFPQEPLSVTWSESGQNVTARNFPPSQDASGDLYTTSSQLTLPATQCPDGKSVTCHVKHYTNPSQDVTVPCPVPPPPPCCHPRLSLHRPALEDLLLGSEANLTCTLTGLRDASGATFTWTPSSGKSAVQGPPERDLCGCYSVSSVLPGCAQPWNHGETFTCTAAHPELKTPLTANITKSGNTFRPEVHLLPPPSEELALNELVTLTCLARGFSPKDVLVRWLQGSQELPREKYLTWASRQEPSQGTTTFAVTSILRVAAEDWKKGDTFSCMVGHEALPLAFTQKTIDRLAG
light: DIQLTQSPSSLSASVGDRVTITCSASSSVSYMYWYQQKPGKAPKPWIYRTSNLASGVPSRFSGSGSGTDFTLTISSLQPEDFATYYCQQYHSYPPTFGGGTKVEIKRTVAAPSVFIFPPSDEQLKSGTASVVCLLNNFYPREAKVQWKVDNALQSGNSQESVTEQDSKDSTYSLSSTLTLSKADYEKHKVYACEVTHQGLSSPVTKSFNRGEC
[2]
  death of Colo205 cells, EC50 as dilution of culture supernatant: ~0.167 dilution

B3: TDR5-A2HF (antibody)
heavy: B2 heavy with H422F
light: B2 light
[2]
  death of Colo205 cells, EC50 as dilution of culture supernatant: > 0.00195 dilution

B4: rituximab-WT (antibody, human IgG1, kappa)
heavy: not shown
light: QIVLSQSPAILSASPGEKVTMTCRASSSVSYIHWFQQKPGSSPKPWIYATSNLASGVPVRFSGSGSGTSYSLTISRVEAEDAATYYCQQWTSNPPTFGGGTKVEIKRTVAAPSVFIFPPSDEQLKSGTASVVCLLNNFYPREAKVQWKVDNALQSGNSQESVTEQDSKDSTYSLSSTLTLSKADYEKHKVYACEVTHQGLSSPVTKSFNRGEC
[3]
  EC50 (read off the curve), FcγRIIIa reporter activation: ~0.04 nM
[4]
  EC50 (read off the curve), FcγRIIIa reporter activation: ~0.03 nM

B5: CC40.8-WT (antibody)
heavy: not shown
light: SYELTQPPSVSVSPGQTARITCSGDALPKRYAYWYQQKSGQAPILVIYEDKKRPSGIPERLSGSKSGTVATLTISGAQVEDEADYYCYSTDSSGNHAVFGGGTQLTVLGQPKAAPSVFIFPPSDEQLKSGTASVVCLLNNFYPREAKVQWKVDNALQSGNSQESVTEQDSKDSTYSLSSTLTLSKADYEKHKVYACEVTHQGLSSPVTKSFNRGEC
[5]
  binding result: binds
